# Measurements published in FireProtDB (doi:10.1093/protein/12.8.663).
# B1: Lysozyme C wild type, P61626 (protein)
# chain: MKALIVLGLVLLSVTVQGKVFERCELARTLKRLGMDGYRGISLANWMCLAKWESGYNTRATNYNAGDRSTDYGIFQINSRYWCNDGKTPGAVNACHLSCSALLQDNIADAVACAKRVVRDPQGIRAWVAWRNRCQNRDVRQYVQGCGV
# Settings: Homo sapiens; pH 2.7; Thermal; DSC; glycine 0.05 M; reversible: yes; whole UniProt chain shown
protein,measurement,value
B1,Tm,64.9 °C
same,heat capacity change of unfolding,1.58 kcal/mol/K
same,unfolding enthalpy (calorimetric),114 kcal/mol
